Patent publication US6455314 (GENVEC, dated 2002)
Positions count from the first letter of the chain named. In names and notes the source's numbering stands.

T1: coxsackievirus and adenovirus receptor (CAR) (UniProt P78310 20-365)
T1 sequence: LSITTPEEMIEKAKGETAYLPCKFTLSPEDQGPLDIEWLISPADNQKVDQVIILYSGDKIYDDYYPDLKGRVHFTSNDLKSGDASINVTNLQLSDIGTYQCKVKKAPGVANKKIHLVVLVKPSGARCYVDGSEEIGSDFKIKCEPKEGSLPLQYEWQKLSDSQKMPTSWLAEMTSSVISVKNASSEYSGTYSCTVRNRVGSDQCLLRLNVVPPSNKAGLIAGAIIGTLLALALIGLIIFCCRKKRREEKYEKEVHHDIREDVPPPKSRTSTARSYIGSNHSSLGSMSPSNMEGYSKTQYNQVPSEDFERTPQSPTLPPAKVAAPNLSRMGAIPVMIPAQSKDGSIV

B1: native Ad5 fiber knob (ligand)
chain: GAITVGNKNNDKLTLWTTPAPSPNCRLNAEKDAKLTLVLTKCGSQILATVSVLAVKGSLAPISGTVQSAHLIIRFDENGVLLNNSFLDPEYWNFRNGDLTEGTAYTNAVGFMPNLSAYPKSHGKTAKSNIVSQVYLNGDKTKPVTLTITLNGTQETGDTTPSAYSMSFSWDWSGHNYINEIFATSSYTFSYIAQE
B2: Ad5-2 mutant Ad5 fiber knob P409A (ligand)
chain: B1 chain with P23A
B3: Ad5-5 mutant Ad5 fiber knob K(420)A (ligand)
chain: B1 chain with K34A
B4: Ad5-8 mutant Ad5 fiber knob Y(477)A (ligand)
chain: B1 chain with Y91A
B5: Ad5-4 mutant Ad5 fiber knob K(417)G (ligand)
chain: B1 chain with K31G
B6: Ad5-9 mutant Ad5 fiber knob EGTAY(487-491)GGGGG (ligand)
chain: B1 chain with E101G, T103G, A104G, Y105G
B7: Ad5-3 mutant Ad5 fiber knob RLNAEK(412-417)SLNGGG (ligand)
chain: B1 chain with R26S, A29G, E30G, K31G
B8: Ad5-1 mutant Ad5 fiber knob S408E (ligand)
chain: B1 chain with S22E

molecular target: T1, coxsackievirus and adenovirus receptor …; test: cell-based or functional assay

Molecule	Competition (from IC50 of blocking Ad5-lacZ transduction of A549 cells, β-galactosidase activity)
B1	100%
B2	< 1%
B3	< 0.1%
B4	< 0.1%
B5	< 0.1%
B6	< 0.1%
B7	< 0.1%
B8	< 0.1%

molecular target: coxsackievirus and adenovirus receptor (CAR) (UniProt P78310); test: cell-based or functional assay

Molecule	Competition (from IC50 of blocking Ad5-lacZ transduction of A549 cells, β-galactosidase activity)
Ad5-7 mutant Ad5 fiber knob, deletion DPEY(474-477) (from UniProt P11818 387-581) (ligand)	< 0.1%
Ad5-10 mutant Ad5 fiber knob, deletion TAYT(489-492) (from UniProt P11818 387-581) (ligand)	< 0.1%
Ad5-6 mutant Ad5 fiber knob, deletion DPE(474-476) (from UniProt P11818 387-581) (ligand)	< 20%
F3K (native) (from UniProt P04501 119-319) (ligand)	< 0.1%
